Experimental data as given in PMC4229625.

Target: GST-Ana2 phosphorylated by active Plk4 (MBP-Plk4) (Drosophila) (UniProt Q9XZ31)
Assay: pull-down; recombinant GST-Ana2 (or its fragments or mutants) on beads, incubated with active MBP-Plk4 or inactive MBP-Plk4^KD, then with ^35S-Met-labeled proteins made by in vitro transcription and translation; SDS-PAGE and autoradiography

UniProt Q9XZ31, sequence (Q9XZ31 entry or part of it): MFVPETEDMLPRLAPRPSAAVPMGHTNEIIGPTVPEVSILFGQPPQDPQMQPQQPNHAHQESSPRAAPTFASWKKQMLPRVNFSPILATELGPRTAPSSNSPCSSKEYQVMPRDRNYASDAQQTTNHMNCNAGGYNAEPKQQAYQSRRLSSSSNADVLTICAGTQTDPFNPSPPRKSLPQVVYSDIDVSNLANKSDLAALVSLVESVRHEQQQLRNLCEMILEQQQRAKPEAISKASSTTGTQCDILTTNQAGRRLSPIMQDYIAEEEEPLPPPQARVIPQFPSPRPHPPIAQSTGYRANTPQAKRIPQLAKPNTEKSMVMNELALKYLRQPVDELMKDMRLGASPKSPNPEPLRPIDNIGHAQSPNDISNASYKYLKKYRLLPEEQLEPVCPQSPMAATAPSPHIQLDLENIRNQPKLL

- fold increase of binding against Ana2 treated with inactive Plk4: 3.5 fold
Substance: ^35S-Met-labeled Bld10 (natural protein)
